Measurements from patent publication US20190060430A1 (published 2019).
Residue numbers refer to the chain shown, from its start.

Tests used:
Assay in all cases: cytokine release
[1] = biological target: T1, TPTE peptide on HLA-DRB1*15:01 (human)
T1 peptide: DVVYIFFDIKLLRNI

[2] = biological target: T2, hCMV pp65 peptide on HLA-DRB1*07:01 (human)
T2 peptide: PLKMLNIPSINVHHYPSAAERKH

[3] = biological target: NY-ESO-1 peptide on HLA-DRB1*04:01 (human)
[4] = biological target: NY-ESO-1 peptide on HLA-DRB1*11:01 (human)
[5] = biological target: NY-ESO-1 peptide on HLA-DRB1*16:01 (human)
[6] = biological target: T3, NY-ESO-1 peptide on HLA-B*35:08 (human)
T3 peptide: LAMPFATPM

[7] = biological target: T4, NY-ESO-1 peptide on HLA-DRB1*04:01 (human)
T4 peptide: CFLPVFLAQPPSGQRR

[8] = biological target: T5, TPTE peptide on HLA-DRB1*13:01 (human)
T5 peptide: IFFDIKLLRNIPRWTHLLR

[9] = biological target: T6, PLAC1 peptide on HLA-A*02:01 (human)
T6 peptide: SIDWFMVTV

[10] = biological target: T7, PLAC1 peptide on HLA-A*02:01 (human)
T7 peptide: VLCSIDWFM

[11] = biological target: T8, PLAC1 peptide on HLA-A*02:01 (human)
T8 peptide: CSIDWFMVTVHP

[12] = biological target: T9, hCMV pp65 peptide on HLA-DRB1*07:01 (human)
T9 peptide: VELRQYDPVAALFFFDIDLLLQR

B1: TCRCD4-TPT#67 (TCR, V domains shown)
Valpha: QKEVEQDPGPLSVPEGAIVSLNCTYSNSAFQYFMWYRQYSRKGPELLMYTYSSGNKEDGRFTAQVDKSSKYISLFIRDSQPSDSATYLCALYTGGFKTIFGAGTRLFVKA
Vbeta: KAGVTQTPRYLIKTRGQQVTLSCSPISGHRSVSWYQQTPGQGLQFLFEYFSETQRNKGNFPGRFSGRQFSNSRSEMNVSTLELGDSALYLCASSFMGTEQYFGPGTRLTVT
B1: recognises [1].

B2: TCRCD4-CMV#1 (TCR, V domains shown)
Valpha: KQEVTQIPAALSVPEGENLVLNCSFTDSAIYNLQWFRQDPGKGLTSLLLIQSSQREQTSGRLNASLDKSSGRSTLYIAASQPGDSATYLCAVKDNDMRFGAGTRLTVKP
Vbeta: DTAVSQTPKYLVTQMGNDKSIKCEQNLGHDTMYWYKQDSKKFLKIMFSYNNKELIINETVPNRFSPKSPDKAHLNLHINSLELGDSAVYFCASSQEKRGAFFGQGTRLTVV
B2: recognises [2].

B3: TCRCD4-NY#3 (TCR, V domains shown)
Valpha: QKEVEQDPGPLSVPEGAIVSLNCTYSNSAFQYFMWYRQYSRKGPELLMYTYSSGNKEDGRFTAQVDKSSKYISLFIRDSQPSDSATYLCAMSKGAQKLVFGQGTRLTINP
Vbeta: EAGVAQSPRYKIIEKRQSVAFWCNPISGHATLYWYQQILGQGPKLLIQFQNNGVVDDSQLPKDRFSAERLKGVDSTLKIQPAKLEDSAVYLCASSLGDSNTGELFFGEGSRLTVL
B3: recognises [3].

B4: TCRCD4-NY#7 (TCR, V domains shown)
Valpha: AQSVTQLDSQVPVFEEAPVELRCNYSSSVSVYLFWYVQYPNQGLQLLLKYLSGSTLVKGINGFEAEFNKSQTSFHLRKPSVHISDTAEYFCAVSKSGGYQKVTFGTGTKLQVIP
Vbeta: GAVVSQHPSWVICKSGTSVKIECRSLDFQATTMFWYRQFPKQSLMLMATSNEGSKATYEQGVEKDKFLINHASLTLSTLTVTSAHPEDSSFYICSAAPGLAGGQGGSQYFGPGTRLLVL
B4: recognises [4]; recognises [5].

B5: TCRCD8-NY#15 (TCR, V domains shown)
Valpha: QKEVEQNSGPLSVPEGAIASLNCTYSDRGSQSFFWYRQYSGKSPELIMSIYSNGDKEDGRFTAQLNKASQYVSLLIRDSQPSDSATYLCAVPYYWSSGGSNYKLTFGKGTLLTVNP
Vbeta: DTEVTQTPKHLVMGMTNKKSLKCEQHMGHRAMYWYKQKAKKPPELMFVYSYEKLSINESVPSRFSPECPNSSLLNLHLHALQPEDSALYLCASSQSGLEETQYFGPGTRLLVL
B5: recognises [6].

B6: TCRCD4-NY#5 (TCR, V domains shown)
Valpha: AQSVTQLGSHVSVSEGALVLLRCNYSSSVPPYLFWYVQYPNQGLQLLLKYTTGATLVKGINGFEAEFKKSETSFHLTKPSAHMSDAAEYFCAVSRANFGNEKLTFGTGTRLTIIP
Vbeta: B5 Vbeta with S96D, G97P, L98R, E99G, E100G, T101P, Y103H, P106D, L111S, V112I
B6: recognises [4].

B7: TCRCD4-TPT#91 (TCR, V domains shown)
Valpha: EDQVTQSPEALRLQEGESSSLNCSYTVSGLRGLFWYRQDPGKGPEFLFTLYSAGEEKEKERLKATLTKKESFLHITAPKPEDSATYLCAVLGGSNYKLTFGKGTLLTVNP
Vbeta: NAGVTQTPKFQVLKTGQSMTLQCAQDMNHNSMYWYRQDPGMGLRLIYYSASEGTTDKGEVPNGYNVSRLNKREFSLRLESAAPSQTSVYFCAISRDSYEQYFGPGTRLTVT
B7: recognises [1].

B8: TCRCD4-NY#1 (TCR, V domains shown)
Valpha: GIQVEQSPPDLILQEGANSTLRCNFSDSVNNLQWFHQNPWGQLINLFYIPSGTKQNGRLSATTVATERYSLLYISSSQTTDSGVYFCAVNDYKLSFGAGTTVTVRA
Vbeta: DSGVTQTPKHLITATGQRVTLRCSPRSGDLSVYWYQQSLDQGLQFLIQYYNGEERAKGNILERFSAQQFPDLHSELNLSSLELGDSALYFCASSPGVSGTTEAFFGQGTRLTVV
B8: recognises [7].

B9: TCRCD4-TPT#48/2 (TCR, V domains shown)
Valpha: AQSVTQPDIHITVSEGASLELRCNYSYGATPYLFWYVQSPGQGLQLLLKYFSGDTLVQGIKGFEAEFKRSQSSFNLRKPSVHWSDAAEYFCAVGAYDMRFGAGTRLTVKP
Vbeta: DVKVTQSSRYLVKRTGEKVFLECVQDMDHENMFWYRQDPGLGLRLIYFSYDVKMKEKGDIPEGYSVSREKKERFSLILESASTNQTSMYLCASNRLNTEAFFGQGTRLTVV
B9: recognises [1].

B10: TCRCD4-TPT#87 (TCR, V domains shown)
Valpha: ELKVEQNPLFLSMQEGKNYTIYCNYSTTSDRLYWYRQDPGKSLESLFVLLSNGAVKQEGRLMASLDTKARLSTLHITAAVHDLSATYFCAVDMWNNNARLMFGDGTQLVVKP
Vbeta: KAGVTQTPRYLIKTRGQQVTLSCSPISGHRSVSWYQQTPGQGLQFLFEYFSETQRNKGNFPGRFSGRQFSNSRSEMNVSTLELGDSALYLCASSLAQSGANVLTFGAGSRLTVL
B10: recognises [8].

B11: TCRCD8-mPL#22 (TCR, V domains shown)
Valpha: GQQVQQSPASLVLQEGENAELQCNFSSTATRLQWFYQHPGGRLVSLFYNPSGTKHTGRLTSTTVTNERRSSLHISSSQTTDSGTYFCAAASNTNKVVFGTGTRLQVLP
Vbeta: GALVYQYPRRTICKSGTSMRMECQAVGFQATSVAWYRQSPQKTFELIALSTVNSAIKYEQNFTQEKFPISHPNLSFSSMTVLNAYLEDRGLYLCGVDRANYAEQFFGPGTRLTVL
B11: recognises [9]; recognises [10]; recognises [11].

B12: TCRCD4-TPT#55 (TCR, V domains shown)
Valpha: AQTVTQSQPEMSVQEAETVTLSCTYDTSESDYYLFWYKQPPSRQMILVIRQEAYKQQNATENRFSVNFQKAAKSFSLKISDSQLGDAAMYFCAYRSAVYNTDKLIFGTGTRLQVFP
Vbeta: KAGVTQTPRYLIKTRGQQVTLSCSPISGHRSVSWYQQTPGQGLQFLFEYFSETQRNKGNFPGRFSGRQFSNSRSEMNVSTLELGDSALYLCASSFSSYNEQFFGPGTRLTVL
B12: recognises [8].

B13: TCRCD8-NY#8 (TCR, V domains shown)
Valpha: AQSVTQLDSQVPVFEEAPVELRCNYSSSVSVYLFWYVQYPNQGLQLLLKYLSGSTLVKGINGFEAEFNKSQTSFHLRKPSVHISDTAEYFCAVSDQGTGGFKTIFGAGTRLFVKA
Vbeta: DVKVTQSSRYLVKRTGEKVFLECVQDMDHENMFWYRQDPGLGLRLIYFSYDVKMKEKGDIPEGYSVSREKKERFSLILESASTNQTSMYLCASRGTVTSSLMNTEAFFGQGTRLTVV
B13: recognises [6].

B14: TCRCD8-NY#6 (TCR, V domains shown)
Valpha: SQQGEEDPQALSIQEGENATMNCSYKTSINNLQWYRQNSGRGLVHLILIRSNEREKHSGRLRVTLDTSKKSSSLLITASRAADTASYFCATDEYGNKLVFGAGTILRVKS
Vbeta: DAGVIQSPRHEVTEMGQEVTLRCKPISGHNSLFWYRQTMMRGLELLIYFNNNVPIDDSGMPEDRFSAKMPNASFSTLKIQPSEPRDSAVYFCASSYPGFNEQFFGPGTRLTVL
B14: recognises [6].

B15: TCRCD4-CMV#3 (TCR, V domains shown)
Valpha: AQSVTQLDSQVPVFEEAPVELRCNYSSSVSVYLFWYVQYPNQGLQLLLKYLSGSTLVKGINGFEAEFNKSQTSFHLRKPSVHISDTAEYFCAVSSYGSSNTGKLIFGQGTTLQVKP
Vbeta: NAGVTQTPKFQVLKTGQSMTLQCAQDMNHNSMYWYRQDPGMGLRLIYYSASEGTTDKGEVPNGYNVSRLNKREFSLRLESAAPSQTSVYFCASSTAGGRNYGYTFGSGTRLTVV
B15: recognises [12].

B16: TCRCD8-NY#5 (TCR, V domains shown)
Valpha: ILNVEQSPQSLHVQEGDSTNFTCSFPSSNFYALHWYRWETAKSPEALFVMTLNGDEKKKGRISATLNTKEGYSYLYIKGSQPEDSATYLCASTSYSSASKIIFGSGTRLSIRP
Vbeta: GAGVSQSPRYKVTKRGQDVALRCDPISGHVSLYWYRQALGQGPEFLTYFNYEAQQDKSGLPNDRFSAERPEGSISTLTIQRTEQRDSAMYRCASSHSSGGAGELFFGEGSRLTVL
B16: recognises [6].

B17: TCRCD8-mPL#20 (TCR, V domains shown)
Valpha: GDSVTQKEGLVTLTEGLPVMLNCTYQTIYSNAFLFWYVHYLNESPRLLLKSSTDNKRTEHQGFHATLHKSSSSFHLQKSSAQLSDSALYYCALNNVGDNSKLIWGLGTSLVVNP
Vbeta: NTKITQSPRYLILGRANKSLECEQHLGHNAMYWYKQSAEKPPELMFLYNLKQLIRNETVPSRFIPECPDSSKLLLHISAVDPEDSAVYFCASSQYGGANTEVFFGKGTRLTVV
B17: recognises [9]; recognises [10]; recognises [11].

B18: TCRCD4-NY#11 (TCR, V domains shown)
Valpha: AQSVSQHNHHVILSEAASLELGCNYSYGGTVNLFWYVQYPGQHLQLLLKYFSGDPLVKGIKGFEAEFIKSKFSFNLRKPSVQWSDTAEYFCAVNRRTGNQGGKLIFGQGTELSVKP
Vbeta: EAGVAQSPRYKIIEKRQSVAFWCNPISGHATLYWYQQILGQGPKLLIQFQNNGVVDDSQLPKDRFSAERLKGVDSTLKIQPAKLEDSAVYLCASSLGPYIDGAGCTFGSGTRLTVV
B18: recognises [4].

B19: TCRCD4-CMV#5 (TCR, V domains shown)
Valpha: GIQVEQSPPDLILQEGANSTLRCNFSDSVNNLQWFHQNPWGQLINLFYIPSGTKQNGRLSATTVATERYSLLYISSSQTTDSGVYFCAAGSNTGNQFYFGTGTSLTVIP
Vbeta: NAGVTQTPKFRVLKTGQSMTLLCAQDMNHEYMYWYRQDPGMGLRLIHYSVGEGTTAKGEVPDGYNVSRLKKQNFLLGLESAAPSQTSVYFCASSSRGYGTDTQYFGPGTRLTVL
B19: recognises [12].
